This test deals with Spz, activated cystine-knot domain (Drosophila melanogaster). Description: non-reducing SDS-PAGE and immunoblot; proSpz cleaved by the activated proteases, in the absence of DTT (fig. S10); anti-Spz C106 antibody. (A western blot detects proteins with antibodies after separation by electrophoresis.)

Broadly, the stoichiometry N is a count of units in the complex or per binding partner. Take “Spz, activated cystine-knot domain (domain or fragment)”: the stoichiometry N is 2.

These data come from paper PMC10732536.
